Patent US20160257760A1 (OXFORD BIOTHERAPEUTICS, published 2016)

Experiments:
Experiment in all cases: peptide microarray, 1 µg/mL LY75_A1, anti-human IgG Alexa 647
RSFKALSI = molecular target: T1, RSFKALSI
T1 peptide: RSFKALSI
Experimental: (§1) The chip comprised three panels such that the experiment was performed in triplicate. […] The binding assay was performed under the following conditions:—The microarray comprising the contiguous peptides in triplicate was washed with 1 mL of binding buffer at 4° C. for 20 min. […] The array was again washed with 0.5 mL of washing buffer at 4° C. for 30 min.

EVKDCRSF = molecular target: T2, EVKDCRSF
T2 peptide: EVKDCRSF
Experimental: as §1

SLCQKYSE = molecular target: T3, SLCQKYSE
T3 peptide: SLCQKYSE
Experimental: as §1

SCSERHFV = molecular target: T4, SCSERHFV
T4 peptide: SCSERHFV
Experimental: as §1

TSCSERHF = molecular target: T5, TSCSERHF
T5 peptide: TSCSERHF
Experimental: as §1

RHFVSLCQ = molecular target: T6, RHFVSLCQ
T6 peptide: RHFVSLCQ
Experimental: as §1

FVSLCQKY = molecular target: T7, FVSLCQKY
T7 peptide: FVSLCQKY
Experimental: as §1

FTSCSERH = molecular target: T8, FTSCSERH
T8 peptide: FTSCSERH
Experimental: as §1

SERHFVSL = molecular target: T9, SERHFVSL
T9 peptide: SERHFVSL
Experimental: as §1

VSLCQKYS = molecular target: T10, VSLCQKYS
T10 peptide: VSLCQKYS
Experimental: as §1

ERHFVSLC = molecular target: T11, ERHFVSLC
T11 peptide: ERHFVSLC
Experimental: as §1

LCQKYSEV = molecular target: T12, LCQKYSEV
T12 peptide: LCQKYSEV
Experimental: as §1

CQKYSEVK = molecular target: T13, CQKYSEVK
T13 peptide: CQKYSEVK
Experimental: as §1

QKYSEVKS = molecular target: T14, QKYSEVKS
T14 peptide: QKYSEVKS
Experimental: as §1

PWRRGWHF = molecular target: T15, PWRRGWHF
T15 peptide: PWRRGWHF
Experimental: as §1

[1] = molecular target: T16, LY75 tryptic peptide GWHFYDDR (765-772)
T16 construct: Tryptic peptide of recombinant LY75, eluted from LY75_A1 beads and identified by LC-MS/MS
T16 peptide: GWHFYDDR
Experimental: as §1

YDDREFIY = molecular target: T17, YDDREFIY
T17 peptide: YDDREFIY
Experimental: as §1

EFIYLRPF = molecular target: T18, EFIYLRPF
T18 peptide: EFIYLRPF
Experimental: as §1

DREFIYLR = molecular target: T19, DREFIYLR
T19 peptide: DREFIYLR
Experimental: as §1

RRGWHFYD = molecular target: T20, RRGWHFYD
T20 peptide: RRGWHFYD
Experimental: as §1

KLSRLTYS = molecular target: T21, KLSRLTYS
T21 peptide: KLSRLTYS
Experimental: as §1

KKLSRLTY = molecular target: T22, KKLSRLTY
T22 peptide: KKLSRLTY
Experimental: as §1

LSRLTYSS = molecular target: T23, LSRLTYSS
T23 peptide: LSRLTYSS
Experimental: as §1

WIQYKGHC = molecular target: T24, WIQYKGHC
T24 peptide: WIQYKGHC
Experimental: as §1

YKGHCYKS = molecular target: T25, YKGHCYKS
T25 peptide: YKGHCYKS
Experimental: as §1

GSRWIQYK = molecular target: T26, GSRWIQYK
T26 peptide: GSRWIQYK
Experimental: as §1

QYKGHCYK = molecular target: T27, QYKGHCYK
T27 peptide: QYKGHCYK
Experimental: as §1

YKSDQALH = molecular target: T28, YKSDQALH
T28 peptide: YKSDQALH
Experimental: as §1

SRWIQYKG = molecular target: T29, SRWIQYKG
T29 peptide: SRWIQYKG
Experimental: as §1

RWIQYKGH = molecular target: T30, RWIQYKGH
T30 peptide: RWIQYKGH
Experimental: as §1

KSDQALHS = molecular target: T31, KSDQALHS
T31 peptide: KSDQALHS
Experimental: as §1

NGSRWIQY = molecular target: T32, NGSRWIQY
T32 peptide: NGSRWIQY
Experimental: as §1

CYKSDQAL = molecular target: T33, CYKSDQAL
T33 peptide: CYKSDQAL
Experimental: as §1

HCYKSDQA = molecular target: T34, HCYKSDQA
T34 peptide: HCYKSDQA
Experimental: as §1

Measured: binding result

B1: LY75_A1 monoclonal antibody (antibody, V domains shown)
VH: EVQLVESGGGLVKPGGSLRLSCAASGFTYSNAWMSWVRQAPGKGLEWVGRIKSKTDGGTTDYAAPVQGRFTISRDDSKNTLYLQMNSLKTEDTAVYYCTIFGVVSFDYWGQGTLVTVSS
VL: DVQMTQSPSSLSASVGDRVTITCRASQSISDYLSWYQQRPGKAPNLLIYAASNLKTGVPSRFSGSGSGTDFTLTISTLQPEDFATYYCQQSYRSPWTFGQGTKVEIKR
notes: also called LY75A1 antibody; LY75_A1 antibody
no binding (tested: 1 µg/mL): RSFKALSI | SLCQKYSE | RHFVSLCQ | ERHFVSLC | LCQKYSEV | CQKYSEVK | QKYSEVKS | WIQYKGHC | KSDQALHS | CYKSDQAL | HCYKSDQA
binds: all other assays above
